Tests used:
C5L2 [1] = target: T1, C5L2 (Homo sapiens, UniProt Q9P296); test: Degranulation (β-hexosaminidase) and enhancement of IgE-receptor-mediated degranulation, C5L2-transfected RBL cells; assay type: cell-based; settings: enhancement of IgE-mediated degranulation, FIG. 3A
T1 construct: expressed in transfected cells

C5L2+Gα16 = target: T2, C5L2+Gα16 (Homo sapiens, UniProt Q9P296); assay type: cell-based; settings: C5L2+Gα16 cells after 10 ng/ml PT, FIG. 4D
T2 construct: inferred from the sorting antibody; expressed in transfected cells
T2 sequence (Q9P296 whole entry): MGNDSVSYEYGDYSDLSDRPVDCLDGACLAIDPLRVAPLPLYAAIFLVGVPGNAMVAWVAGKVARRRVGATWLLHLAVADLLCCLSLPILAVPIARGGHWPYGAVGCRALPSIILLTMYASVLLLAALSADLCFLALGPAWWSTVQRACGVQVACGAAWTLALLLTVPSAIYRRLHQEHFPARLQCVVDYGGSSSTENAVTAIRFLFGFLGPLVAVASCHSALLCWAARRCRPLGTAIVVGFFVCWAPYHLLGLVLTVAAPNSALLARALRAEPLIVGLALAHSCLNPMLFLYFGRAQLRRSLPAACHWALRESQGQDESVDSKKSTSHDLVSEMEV

C5L2 [2] = target: T1, C5L2; test: Competition binding with 125I-C5a, C5L2-transfected RBL cells
Method: (§1) FIG. 1 illustrates C3a des-Arg^77 and C4a des-Arg^77 bind to RBL cells expressing C5L2. RBL cells transfected with C5L2 were incubated with the stated concentrations of complement fragments for 10 min prior to the addition of 50 pM ^125I-C3a (A) or 50 pM ^125I-C5a (B). Results are the means of n (n shown in Table 1) separate experiments performed in duplicate±S.E.;
(§2) C5L2, C3aR and CD88-transfected RBL cells were produced as described (17). G16 was cloned from human monocytes mRNA and authenticated by sequencing. Human G16 and either C5L2 or CD88 were ligated into the bicistronic expression vector pIRES (Qiagen). Stable transfection of RBL-2H3 cells with pIRES constructs was achieved by electroporation (18). Cells underwent three rounds of fluorescence-activated cell sorting using anti-CD88 antibody (clone S5/1; Serotec) or anti-hemagglutinin peptide antibody (Roćhe Molecular Biochemicals, clone 12CA5), selecting the top 5% of receptor-positive cells in each round.
(§3) Competition binding assays were performed using 50 pM ^125I-C5a or ^125I-C3a (NEN) on adherent C5aR-transfected or C5L2-transfected RBL cells in 96-well microtiter plates (55 000/well) at 4° C. as described previously (22). Competition curves were generated by pre-incubating adherent cells with increasing concentrations of unlabelled complement fragments. […]

C5L2 [3] = target: T1, C5L2; test: Competition binding with 125I-C3a, C5L2-transfected RBL cells; settings: FIG. 1A
Method: as §1, §2, §3

C3aR [4] = target: T3, C3aR (Homo sapiens, UniProt Q16581); test: Degranulation of C3aR-transfected RBL cells; assay type: cell-based; settings: RBL cells transfected with C3aR; data not shown
T3 construct: expressed in transfected cells
T3 sequence (Q16581 1-482): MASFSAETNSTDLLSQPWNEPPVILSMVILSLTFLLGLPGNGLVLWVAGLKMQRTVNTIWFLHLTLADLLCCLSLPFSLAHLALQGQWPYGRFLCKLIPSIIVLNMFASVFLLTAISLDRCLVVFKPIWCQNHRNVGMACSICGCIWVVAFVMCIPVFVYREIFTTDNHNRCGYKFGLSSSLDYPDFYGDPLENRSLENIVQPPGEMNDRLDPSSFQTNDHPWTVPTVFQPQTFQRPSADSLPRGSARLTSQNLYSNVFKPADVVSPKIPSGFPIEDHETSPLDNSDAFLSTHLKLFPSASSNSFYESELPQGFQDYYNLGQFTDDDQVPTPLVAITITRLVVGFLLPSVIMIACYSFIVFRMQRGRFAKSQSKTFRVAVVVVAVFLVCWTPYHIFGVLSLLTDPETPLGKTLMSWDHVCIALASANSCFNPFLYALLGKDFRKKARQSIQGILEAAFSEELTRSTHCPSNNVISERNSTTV
Method: Cellular activation was measured as the release of -hexosaminidase from intracellular granules (20). In the enhancement of degranulation assay, cells were treated with 1 μg/ml IgE^DNP (21) overnight, then with chemoattractants or peptides for 10 min prior to stimulation with 100 ng/ml DNP-HSA (Sigma) for 15 minutes. EC50 and standard error values were obtained by iterative curve fitting using GraphPad Prism 2.0.

CD88 [5] = target: T4, CD88 (Homo sapiens, UniProt P21730); test: Radiolabelled ligand competition receptor binding, CD88-transfected RBL cells
T4 construct: expressed in transfected cells
T4 sequence (P21730 1-350): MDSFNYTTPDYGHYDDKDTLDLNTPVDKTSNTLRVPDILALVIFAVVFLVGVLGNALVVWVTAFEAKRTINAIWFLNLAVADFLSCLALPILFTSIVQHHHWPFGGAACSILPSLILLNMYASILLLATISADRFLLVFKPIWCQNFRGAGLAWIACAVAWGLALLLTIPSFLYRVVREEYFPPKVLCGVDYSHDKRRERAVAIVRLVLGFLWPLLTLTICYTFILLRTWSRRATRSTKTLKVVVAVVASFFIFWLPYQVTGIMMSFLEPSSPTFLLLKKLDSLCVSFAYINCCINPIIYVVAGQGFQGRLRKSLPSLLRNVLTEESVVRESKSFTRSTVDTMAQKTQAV
Excerpt: as §2
(§4) Competition binding assays were performed using 50 pM ^125I-C5a or ^125I-C3a (NEN) on adherent C5aR-transfected or C5L2-transfected RBL cells in 96-well microtiter plates (55 000/well) at 4° C. as described previously (22). Competition curves were generated by pre-incubating adherent cells with increasing concentrations of unlabelled complement fragments. The IC50, standard error values and linear regression analyses were obtained by using GraphPad Prism 2.0.

CD88 [6] = target: T4, CD88; test: Degranulation of CD88-transfected RBL cells; assay type: cell-based; settings: RBL cells transfected with CD88; data not shown
C3aR [7] = target: T3, C3aR; test: Radiolabelled ligand competition receptor binding, C3aR-transfected RBL cells; settings: C3aR expressed in RBL cells; competition binding
Excerpt: as §2, §4

T1 sequence (Q9P296 whole entry): as the sequence (Q9P296 whole entry) above

B1: C5a des-Arg^74 (protein)
chain: TLQKKIEEIAAKYKHSVVKKCCYDGACVNNDETCEQRAARISLGPRCIKAFTECCVVASQLRANISHKDMQLG
modifications: left off: small tags and cut ends
notes: desarginated metabolite of complement fragment C5a
**Q.** B1 was tested. Which agonist character (C5L2 [1]) did it give?
**A.** only a partial agonist

B2: C4a: complement fragment of C4 (protein)
chain: NVNFQKAINEKLGQYASPTAKRCCQDGVTRLPMMRSCEQRAARVQQPDCREPFLSCCQFAESLRKKSRDKGQAGLQR
**Q.** With B2 as the molecule, how does the “enhancement of degranulation response to IgE receptor cross-linking” value (C5L2+Gα16) read?
**A.** inactive

B3: C4a des-Arg^77 (protein)
chain: NVNFQKAINEKLGQYASPTAKRCCQDGVTRLPMMRSCEQRAARVQQPDCREPFLSCCQFAESLRKKSRDKGQAGLQ
notes: desarginated metabolite of complement fragment C4a
**Q.** What does the source list for B3?
**A.** IC50 (C5L2 [2]; C5L2 (^125I-C5a) expressed in RBL cells, 50 pM radioligand): 17 µM; competition with ^125I-C5a binding to C5L2 (C5L2 [2]; FIG. 1B): cannot compete effectively; competition with ^125I-C3a for C5L2 binding (C5L2 [3]): can compete strongly; stimulation of degranulation (C3aR [4]): neither C3a des-AXg^77 nor C4a des-Arg^77 can stimulate degranulation; competition with ^125I-C5a binding to CD88 (CD88 [5]): cannot compete effectively; stimulation of degranulation (CD88 [6]): neither C3a des-AXg^77 nor C4a des-Arg^77 can stimulate degranulation; IC50 (C3aR [7]): 10 µM

Reference: patent US20060121462A1, “Receptor and screening methods” (priority 2003, published 2006)
